Laboratory results reported in publication PMC9753469.

Target: MBP-KRAB (ZNF93 KRAB E35R), P35789
Experiment: SPR
Conditions: chain shown with the change; MBP-KRAB immobilized on the chip; KAP1 RBCC as mobile phase

Sequence of MBP-KRAB (ZNF93 KRAB E35R), P35789 (P35789 2-71 E35R): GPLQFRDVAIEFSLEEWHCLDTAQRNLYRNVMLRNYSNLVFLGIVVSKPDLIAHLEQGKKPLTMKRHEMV

Kd: 71.8 nM
B1: m11; m9 KAP1:R311E; ZNF93 KRAB:E35R (protein)
chain: MAASAAAASAAAASAASGSPGPGEGSAGGEKRSTAPSAAASASASAAASSPAGGGAEALELLEHCGVCRERLRPEREPRLLPCLHSACSACLGPAAPAAANSSGDGGAAGDGTVVDCPVCKQQCFSKDIVENYFMRDSGSKAATDAQDANQCCTSCEDNAPATSYCVECSEPLCETCVEAHQRVKYTKDHTVRSTGPAKSRDGERTVYCNVHKHEPLVLFCESCDTLTCRDCQLNAHKDHQYQFLEDAVRNQRKLLASLVKRLGDKHATLQKSTKEVRSSIRQVSDVQKRVQVDVKMAILQIMKELNKRGEVLVNDAQKVTEGQQERLERQHWTMTKIQKHQEHILRFASWALESDNNTALLLSKKLIYFQLHRALKMIVDPVEPHGEMKFQWDLNAWTKSAEAFGKIVAERPGTNSTGPAPMAPPRAPGPLSKQGSGSSQPMEVQEGYGFGSGDDPYSSAEPHVSGVKRSRSGEGEVSGLMRKVPRVSLERLDLDLTADSQPPVFKVFPGSTTEDYNLIVIERGAAAAATGQPGTAPAGTPGAPPLAGMAIVKEEETEAAIGAPPTATEGPETKPVLMALAEGPGAEGPRLASPSGSTSSGLEVVAPEGTSAPGGGPGTLDDSATICRVCQKPGDLVMCNQCEFCFHLDCHLPALQDVPGEEWSCSLCHVLPDLKEEDGSLSLDGADSTGVVAKLSPANQRKCERVLLALFCHEPCRPLHQLATDSTFSLDQPGGTLDLTLIRARLQEKLSPPYSSPQEFAQDVGRMFKQFNKLTEDKADVQSIIGLQRFFETRMNEAFGDTKFSAVLVEPPPMSLPGAGLSSQELSGGPGDGP
